Test results from US7494647 (Chugai, dated 2009).
Where two headings read alike, the source gives them in different places.

Columns and labels:
TF/Factor VIIa complex = TF/Factor VIIa complex (human, UniProt P13726 33-295; P08709 61-466)
[1] = biological target: T1, soluble human TF (human TF 1-219 with the FLAG peptide linked to the C-terminal) (human, UniProt P13726 33-251); test: BIACORE; antibody captured on Protein G chip, soluble TF as analyte; mean ± SD, n = 3
T1 construct: Entry is the whole soluble construct (TF 1-219 followed by FLAG peptide M2); also called soluble TF; shTF
Method: Kinetic analysis of the antigen-antibody reaction was carried out using BIACORE. The recombinant Protein G was immobilized on a sensor chip, to which the antibody was coupled. The purified recombinant TF (a soluble TF in which the FLAG peptide was tagged at 1-219) was used as the antigen, and the-soluble TF prepared at various concentrations were used as analytes. From the sensorgram obtained, kinetic parameters (dissociation rate constants kdiss, and binding rate constants kass) were calculated.
As the running buffer, the HBS-EP buffer was used. Ten μl Of […] antibody solution was injected at a flow rate of 20 μl/min to immobilize antibody. The antibody was diluted with the HBS-EP buffer. Forty μl Of the soluble human TF solution at various concentrations were injected at a flow rate of 30 μl/min thereto. In the analysis, 80 seconds for injection was set as the binding phase and then changed to the HBS-EP buffer to set the dissociation phase of 120 seconds. After the dissociation phase was over, 10 μl of 20 mM hydrochloric acid was injected to reconstitute the sensor chip. The binding, dissociation, and reconstitution were set as one cycle, and the sensorgram was obtained for each antibody. The soluble human TF solution was prepared at concentrations of 250 nM, 125 nM, 62.5 nM, 31.3 nM, 15.6 nM, 7.81 nM, and 3.91 nM using the HBS-EP buffer. As the blank, the sensorgram obtained by injecting the HBS-EP buffer used for dilution was used.
The data file of interest was read in, and the comparison of reaction patterns by superscription was made using as the baseline the sensorgram of the HBS-EP buffer. Furthermore, using an analytical application software "BIAevaluation 2.1" (Pharmacia) exclusively for BIACORE that calculates kinetic parameters (binding rate constants kass and dissociation rate constants kdiss) by curve-fitting, kinetic analysis of interaction was performed. In order to determine the binding rate constants kass, the analysis model type 4 was used (BIAevaluation 2.1 Software Hand book, A1-A5). Based on the values calculated from each flow cell, kinetic parameters for each antibody were obtained.

[2] = biological target: T2, human tissue factor (TF) on human bladder carcinoma cells J82 (human, UniProt P13726 33-295); test: cell ELISA on paraformaldehyde-fixed J82 cells; AP-conjugated goat anti-human IgGγ; absorbance 405/655 nm
T2 construct: whole, on cells; also called the antigen; J82 cells
Method: (§1) Cell ELISA plates for measurement of antigen binding were prepared as follows. Cells used were human bladder carcinoma cells J82 (ATCC HTB-1). To 60 wells of a 96-well cell culture plate, 1 ×10^5 J82 cells were inoculated. This was cultured (RPMI1640 medium containing 10% fetal bovine serum (GIBCO)) for one day in a CO_2 incubator to allow the cells to be attached thereto. After discarding the culture liquid, each well was washed twice with 300 μl PBS. 100 μl of PBS containing 4% paraformaldehyde (hereinafter referred to as PFA/PBS) was added to each well, and placed on ice for 10 minutes to immobilize the cells.
(§2) PFA/PBS was discarded, and each well was washed twice with 300 μl of PBS, and then blocked with 250 μl of DB. The culture supernatant or purified antibody was serially diluted with DB, 100 μl of which was added to each well. After incubating at room temperature for 2 hours followed by washing with RB, 100 μl of alkaline phosphatase-conjugated goat anti-human IgGγ antibody (BioSource) diluted 1000-fold with DB was added. After incubating for 1 hour followed by washing with RB, the substrate solution was added, and then absorbance at 405/655 nm was measured using the Microplate Reader (Bio-Rad).

[3] = biological target: T2, human tissue factor (TF) on human …; test: as above; remark: listed apart in the source
Method: as §1, §2

T1 sequence (P13726 other isoform, or with tags, fused parts or gaps limits assumed): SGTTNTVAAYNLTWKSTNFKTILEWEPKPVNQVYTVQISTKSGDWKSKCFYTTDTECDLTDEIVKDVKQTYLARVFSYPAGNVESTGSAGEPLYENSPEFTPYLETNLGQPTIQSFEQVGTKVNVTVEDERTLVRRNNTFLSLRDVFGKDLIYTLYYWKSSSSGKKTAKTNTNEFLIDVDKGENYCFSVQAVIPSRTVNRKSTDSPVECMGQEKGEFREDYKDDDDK
T2 sequence (P13726 33-295): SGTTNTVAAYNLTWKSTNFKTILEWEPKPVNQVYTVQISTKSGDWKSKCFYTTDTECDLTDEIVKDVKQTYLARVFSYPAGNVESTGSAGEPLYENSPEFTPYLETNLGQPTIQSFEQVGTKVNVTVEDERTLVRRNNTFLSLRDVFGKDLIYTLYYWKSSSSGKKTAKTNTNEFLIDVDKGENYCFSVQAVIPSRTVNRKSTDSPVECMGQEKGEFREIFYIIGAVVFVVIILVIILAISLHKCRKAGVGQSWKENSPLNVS
Chain of TF/Factor VIIa complex (P13726 33-295 limits assumed, chain 1 of 2): as the sequence (P13726 33-295) above
Chain of TF/Factor VIIa complex (P08709 61-466 limits assumed, chain 2 of 2): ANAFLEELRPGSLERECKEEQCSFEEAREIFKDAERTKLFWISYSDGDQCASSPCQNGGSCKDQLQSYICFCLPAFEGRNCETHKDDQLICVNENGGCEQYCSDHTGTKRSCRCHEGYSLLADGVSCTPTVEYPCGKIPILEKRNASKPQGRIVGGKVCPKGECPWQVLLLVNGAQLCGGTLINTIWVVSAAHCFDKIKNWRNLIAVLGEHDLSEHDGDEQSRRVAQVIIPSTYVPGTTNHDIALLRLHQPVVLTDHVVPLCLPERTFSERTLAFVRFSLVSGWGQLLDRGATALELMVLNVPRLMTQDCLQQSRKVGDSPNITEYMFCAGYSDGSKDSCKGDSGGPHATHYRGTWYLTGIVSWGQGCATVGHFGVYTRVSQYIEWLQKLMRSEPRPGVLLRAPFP

- IC50 (read off the curve) (TF/Factor VIIa complex): 0.1 µg/mL
- Kd [1]: 2.3 nM
- koff [1]: 0.000952 s⁻¹
- kon [1]: 415000 M⁻¹ s⁻¹
- EC50 (read off the curve) [2]: ~0.07 µg/mL
- EC50 (read off the curve) [3]: ~0.05 µg/mL
B1: H chain humanized version b/L chain humanized version b antibody (antibody, IgG4, V domains shown)
VH: QVQLLESGAVLARPGTSVKISCKASGFNIKDYYMHWVKQRPGQGLEWIGGNDPANGHSMYDPKFQGRVTITADTSTNTAYMELSSLRSEDTAIYYCARDSGYAMDYWGQGTLVTVSS
VL: DIQMTQSPSSLSASVGDRVTITCKASQDIKSFLSWYQQKPGKAPKLLIYYATSLADGVPSRFSGSGSGTDYTLTISSLQPEDFATYYCLQHGESPYTFGGGTKVEIK
notes: also called b-b; bb
